Data as given in PMC5317049, “Ex vivo^18O-labeling mass spectrometry identifies a peripheral amyloid β clearance pathway” (Molecular Neurodegeneration, 2017).

B1: ponezumab: C-terminal (Aβ X-40) antibody ponezumab (antibody, chains of the INN, looked up, V domains shown)
VH: QVQLVQSGAEVKKPGASVKVSCKASGYYTEAYYIHWVRQAPGQGLEWMGRIDPATGNTKYAPRLQDRVTMTRDTSTSTVYMELSSLRSEDTAVYYCASLYSLPVYWGQGTTVTVSS
VL: DVVMTQSPLSLPVTLGQPASISCKSSQSLLYSDAKTYLNWFQQRPGQSPRRLIYQISRLDPGVPDRFSGSGSGTDFTLKISRVEAEDVGVYYCLQGTHYPVLFGQGTRLEIK

Legend:
[1] = tested on: IDE; settings: EDTA in plasma collection tubes; cited from earlier work
[2] = target: T1, Aβ1-40 (Homo sapiens, UniProt P05067); assay: Effect of antibodies on Aβ degradation in 5% serum; format: biochemical; settings: 4 μg recombinant antibody in 1 ml PBS with 0.016 μM labeled Aβ1-40, 1 h pre-incubation, then 5% serum overnight, room temperature; IP-MALDI MS
T1 construct: To 1 ml PBS containing isotopic labeled Aβ1-40 (0.016 μM) 4 μg of each of the recombinant antibodies; purchased Anaspec, Inc
Method: The antibodies were expressed and purified as previously described. Each sample was spiked with serum (5%, end concentration) followed by incubation overnight at room temperature. The samples were placed in a 100 °C heating block for five minutes to disrupt potential antibody/Aβ complexes, and subsequently centrifuged for 10 min at 4 °C (31.000 x g). The supernatants were transferred to new tubes and Aβ peptides were immunoprecipitated and analyzed by mass spectrometry as described above.

[3] = tested on: Aβ; settings: than solanezumab; cited from earlier work
[4] = target: T2, insulin-degrading enzyme (IDE) (Homo sapiens, UniProt P14735); assay: Inhibition of IDE activity by insulin; format: biochemical; settings: increasing insulin (0.1, 1 or 10 μM), PBS spiked with Aβ1-40 Arg13C15N, overnight, room temperature; IP-MALDI MS (Fig. 5c)
T2 construct: purchased Sigma
Method: […] The samples were incubated overnight at room temperature. Immunoprecipitation and mass spectrometry were conducted as described above.

[5] = tested on: plasma Aβ; settings: anti-amyloid treatment; 45 (solanezumab), 9, 22 (ponezumab), 7; cited from earlier work
From the text: To explore this hypothesis, we tested the effect of recombinant versions of the antibodies solanezumab, ba ...

| Molecule | effect on proteolytic degradation of Aβ1-40 in serum [2] | increase of plasma Aβ concentration compared to physiological levels [5] | other results |
| --- | --- | --- | --- |
| O=C(O)CN(CCN(CC(=O)O)CC(=O)O)CC(=O)O [EDTA] | – | – | effect on IDE proteolytic activity [1]: inhibit IDE proteolytic activity |
| crenezumab: recombinant anti-Aβ antibody crenezumab | did not block the degradation | – | affinity for Aβ compared with solanezumab [3]: much lower affinity |
| insulin: insulin added as competing substrate to inhibit IDE-mediated proteolytic activity | – | – | inhibition of IDE-mediated proteolysis of Aβ1-40 Arg13C15N [4]: abundance of Aβ1-20 decreased with increasing insulin concentration |
| solanezumab: recombinant version of the mid-domain anti-Aβ antibody solanezumab | effectively abrogated | up to thousand-fold | – |
| B1 | – | up to thousand-fold | – |
